Biological target: recombinant human IL-18 (human) (UniProt Q14116)
Experiment: free IL-18 ECL immunoassay: recombinant human IL-18 captured by plate-coated Antibody 12GL, biotinylated detection antibody; rhIL-18BP titrated as competitor of the capture

Substance “recombinant IL-18BP (from UniProt O95998 31-194)” has an IC50 (read off the curve) of 3 ng/mL.
